Assay results published in patent US20210123065.

System: Che9c RecT annealase (Mycobacteriophage Che9c)
Experiment: cell_activity
Details: oligo recombineering, about 1 ug oligo, M. smegmatis

Substance: 180-mer hyg oligo carrying 60 base insertion
- activity (recombinants per survivor): 2e-06
